# Test results as given in paper PMC12440826, “Shigella flexneri evades LPS ubiquitylation through IpaH1.4-mediated degradation of RNF213” (Nature Structural & Molecular Biology, 2025).
# B1: IpaH1.4 (untagged, recombinant) (enzyme)
# chain: MIKSTNIQAIGSGIMHQINNVYSLTPLSLPMELTPSCNEFYLKTWSEWEKNGTPGEQRNIAFNRLKICLQNQEAELNLSELDLKTLPDLPPQITTLEIRKNLLTHLPDLPPMLKVIHAQFNQLESLPALPETLEELNAGDNKIKELPFLPENLTHLRVHNNRLHILPLLPPELKLLVVSGNRLDSIPPFPDKLEGLALANNFIEQLPELPFSMNRAVLMNNNLTTLPESVLRLAQNAFVNVAGNPLSGHTMRTLQQITTGPDYSGPQIFFSMGNSATISAPEHSLADAVTAWFPENKQSDVSQIWHAFEHEEHANTFSAFLDRLSDTVSARNTSGFREQVAAWLEKLSASAELRQQSFAVAADATESCEDRVALTWNNLRKTLLVHQASEGLFDNDTGALLSLGREMFRLEILEDIARDKVRTLHFVDEIEVYLAFQTMLAEKLQLSTAVKEMRFYGVSGVTANDLRTAEAMVRSREENEFTDWFSLWGPWHAVLKRTEADRWAQAEEQKYEMLENEYSQRVADRLKASGLSGDADAEREAGAQVMRETEQQIYRQLTDEVLALRLSENGSNHIA
# notes: IpaH1.4, secreted E3 ubiquitin ligase effector of Shigella flexneri; open reading frame cloned into pETM-30; only the LRR domain is resolved in the map; also called WT IpaH1.4; not shown: 6xHis, N-terminal, cleaved; GST, N-terminal, cleaved
# Biological target: T1, 2×Strep–RNF213 (WT human RNF213) (human, UniProt Q63HN8 1-5207)
# T1 construct: RNF213, human E3 ubiquitin ligase; plasmid pOP806_pACEBac1 2×Strep–RNF213; the N terminus (residues 1–398) is not resolved in the maps; source: Sf9, purified (StrepTrap HP)
# Experiment: cryo-EM structure; RNF213 (around 2 μM) mixed with a fivefold molar excess of IpaH1.4/2.5 (10 μM), incubated on ice for 30 min, vitrified on all-gold grids
# Conditions: both partners purified
# T1 sequence (Q63HN8 whole entry, the tested form may be a part): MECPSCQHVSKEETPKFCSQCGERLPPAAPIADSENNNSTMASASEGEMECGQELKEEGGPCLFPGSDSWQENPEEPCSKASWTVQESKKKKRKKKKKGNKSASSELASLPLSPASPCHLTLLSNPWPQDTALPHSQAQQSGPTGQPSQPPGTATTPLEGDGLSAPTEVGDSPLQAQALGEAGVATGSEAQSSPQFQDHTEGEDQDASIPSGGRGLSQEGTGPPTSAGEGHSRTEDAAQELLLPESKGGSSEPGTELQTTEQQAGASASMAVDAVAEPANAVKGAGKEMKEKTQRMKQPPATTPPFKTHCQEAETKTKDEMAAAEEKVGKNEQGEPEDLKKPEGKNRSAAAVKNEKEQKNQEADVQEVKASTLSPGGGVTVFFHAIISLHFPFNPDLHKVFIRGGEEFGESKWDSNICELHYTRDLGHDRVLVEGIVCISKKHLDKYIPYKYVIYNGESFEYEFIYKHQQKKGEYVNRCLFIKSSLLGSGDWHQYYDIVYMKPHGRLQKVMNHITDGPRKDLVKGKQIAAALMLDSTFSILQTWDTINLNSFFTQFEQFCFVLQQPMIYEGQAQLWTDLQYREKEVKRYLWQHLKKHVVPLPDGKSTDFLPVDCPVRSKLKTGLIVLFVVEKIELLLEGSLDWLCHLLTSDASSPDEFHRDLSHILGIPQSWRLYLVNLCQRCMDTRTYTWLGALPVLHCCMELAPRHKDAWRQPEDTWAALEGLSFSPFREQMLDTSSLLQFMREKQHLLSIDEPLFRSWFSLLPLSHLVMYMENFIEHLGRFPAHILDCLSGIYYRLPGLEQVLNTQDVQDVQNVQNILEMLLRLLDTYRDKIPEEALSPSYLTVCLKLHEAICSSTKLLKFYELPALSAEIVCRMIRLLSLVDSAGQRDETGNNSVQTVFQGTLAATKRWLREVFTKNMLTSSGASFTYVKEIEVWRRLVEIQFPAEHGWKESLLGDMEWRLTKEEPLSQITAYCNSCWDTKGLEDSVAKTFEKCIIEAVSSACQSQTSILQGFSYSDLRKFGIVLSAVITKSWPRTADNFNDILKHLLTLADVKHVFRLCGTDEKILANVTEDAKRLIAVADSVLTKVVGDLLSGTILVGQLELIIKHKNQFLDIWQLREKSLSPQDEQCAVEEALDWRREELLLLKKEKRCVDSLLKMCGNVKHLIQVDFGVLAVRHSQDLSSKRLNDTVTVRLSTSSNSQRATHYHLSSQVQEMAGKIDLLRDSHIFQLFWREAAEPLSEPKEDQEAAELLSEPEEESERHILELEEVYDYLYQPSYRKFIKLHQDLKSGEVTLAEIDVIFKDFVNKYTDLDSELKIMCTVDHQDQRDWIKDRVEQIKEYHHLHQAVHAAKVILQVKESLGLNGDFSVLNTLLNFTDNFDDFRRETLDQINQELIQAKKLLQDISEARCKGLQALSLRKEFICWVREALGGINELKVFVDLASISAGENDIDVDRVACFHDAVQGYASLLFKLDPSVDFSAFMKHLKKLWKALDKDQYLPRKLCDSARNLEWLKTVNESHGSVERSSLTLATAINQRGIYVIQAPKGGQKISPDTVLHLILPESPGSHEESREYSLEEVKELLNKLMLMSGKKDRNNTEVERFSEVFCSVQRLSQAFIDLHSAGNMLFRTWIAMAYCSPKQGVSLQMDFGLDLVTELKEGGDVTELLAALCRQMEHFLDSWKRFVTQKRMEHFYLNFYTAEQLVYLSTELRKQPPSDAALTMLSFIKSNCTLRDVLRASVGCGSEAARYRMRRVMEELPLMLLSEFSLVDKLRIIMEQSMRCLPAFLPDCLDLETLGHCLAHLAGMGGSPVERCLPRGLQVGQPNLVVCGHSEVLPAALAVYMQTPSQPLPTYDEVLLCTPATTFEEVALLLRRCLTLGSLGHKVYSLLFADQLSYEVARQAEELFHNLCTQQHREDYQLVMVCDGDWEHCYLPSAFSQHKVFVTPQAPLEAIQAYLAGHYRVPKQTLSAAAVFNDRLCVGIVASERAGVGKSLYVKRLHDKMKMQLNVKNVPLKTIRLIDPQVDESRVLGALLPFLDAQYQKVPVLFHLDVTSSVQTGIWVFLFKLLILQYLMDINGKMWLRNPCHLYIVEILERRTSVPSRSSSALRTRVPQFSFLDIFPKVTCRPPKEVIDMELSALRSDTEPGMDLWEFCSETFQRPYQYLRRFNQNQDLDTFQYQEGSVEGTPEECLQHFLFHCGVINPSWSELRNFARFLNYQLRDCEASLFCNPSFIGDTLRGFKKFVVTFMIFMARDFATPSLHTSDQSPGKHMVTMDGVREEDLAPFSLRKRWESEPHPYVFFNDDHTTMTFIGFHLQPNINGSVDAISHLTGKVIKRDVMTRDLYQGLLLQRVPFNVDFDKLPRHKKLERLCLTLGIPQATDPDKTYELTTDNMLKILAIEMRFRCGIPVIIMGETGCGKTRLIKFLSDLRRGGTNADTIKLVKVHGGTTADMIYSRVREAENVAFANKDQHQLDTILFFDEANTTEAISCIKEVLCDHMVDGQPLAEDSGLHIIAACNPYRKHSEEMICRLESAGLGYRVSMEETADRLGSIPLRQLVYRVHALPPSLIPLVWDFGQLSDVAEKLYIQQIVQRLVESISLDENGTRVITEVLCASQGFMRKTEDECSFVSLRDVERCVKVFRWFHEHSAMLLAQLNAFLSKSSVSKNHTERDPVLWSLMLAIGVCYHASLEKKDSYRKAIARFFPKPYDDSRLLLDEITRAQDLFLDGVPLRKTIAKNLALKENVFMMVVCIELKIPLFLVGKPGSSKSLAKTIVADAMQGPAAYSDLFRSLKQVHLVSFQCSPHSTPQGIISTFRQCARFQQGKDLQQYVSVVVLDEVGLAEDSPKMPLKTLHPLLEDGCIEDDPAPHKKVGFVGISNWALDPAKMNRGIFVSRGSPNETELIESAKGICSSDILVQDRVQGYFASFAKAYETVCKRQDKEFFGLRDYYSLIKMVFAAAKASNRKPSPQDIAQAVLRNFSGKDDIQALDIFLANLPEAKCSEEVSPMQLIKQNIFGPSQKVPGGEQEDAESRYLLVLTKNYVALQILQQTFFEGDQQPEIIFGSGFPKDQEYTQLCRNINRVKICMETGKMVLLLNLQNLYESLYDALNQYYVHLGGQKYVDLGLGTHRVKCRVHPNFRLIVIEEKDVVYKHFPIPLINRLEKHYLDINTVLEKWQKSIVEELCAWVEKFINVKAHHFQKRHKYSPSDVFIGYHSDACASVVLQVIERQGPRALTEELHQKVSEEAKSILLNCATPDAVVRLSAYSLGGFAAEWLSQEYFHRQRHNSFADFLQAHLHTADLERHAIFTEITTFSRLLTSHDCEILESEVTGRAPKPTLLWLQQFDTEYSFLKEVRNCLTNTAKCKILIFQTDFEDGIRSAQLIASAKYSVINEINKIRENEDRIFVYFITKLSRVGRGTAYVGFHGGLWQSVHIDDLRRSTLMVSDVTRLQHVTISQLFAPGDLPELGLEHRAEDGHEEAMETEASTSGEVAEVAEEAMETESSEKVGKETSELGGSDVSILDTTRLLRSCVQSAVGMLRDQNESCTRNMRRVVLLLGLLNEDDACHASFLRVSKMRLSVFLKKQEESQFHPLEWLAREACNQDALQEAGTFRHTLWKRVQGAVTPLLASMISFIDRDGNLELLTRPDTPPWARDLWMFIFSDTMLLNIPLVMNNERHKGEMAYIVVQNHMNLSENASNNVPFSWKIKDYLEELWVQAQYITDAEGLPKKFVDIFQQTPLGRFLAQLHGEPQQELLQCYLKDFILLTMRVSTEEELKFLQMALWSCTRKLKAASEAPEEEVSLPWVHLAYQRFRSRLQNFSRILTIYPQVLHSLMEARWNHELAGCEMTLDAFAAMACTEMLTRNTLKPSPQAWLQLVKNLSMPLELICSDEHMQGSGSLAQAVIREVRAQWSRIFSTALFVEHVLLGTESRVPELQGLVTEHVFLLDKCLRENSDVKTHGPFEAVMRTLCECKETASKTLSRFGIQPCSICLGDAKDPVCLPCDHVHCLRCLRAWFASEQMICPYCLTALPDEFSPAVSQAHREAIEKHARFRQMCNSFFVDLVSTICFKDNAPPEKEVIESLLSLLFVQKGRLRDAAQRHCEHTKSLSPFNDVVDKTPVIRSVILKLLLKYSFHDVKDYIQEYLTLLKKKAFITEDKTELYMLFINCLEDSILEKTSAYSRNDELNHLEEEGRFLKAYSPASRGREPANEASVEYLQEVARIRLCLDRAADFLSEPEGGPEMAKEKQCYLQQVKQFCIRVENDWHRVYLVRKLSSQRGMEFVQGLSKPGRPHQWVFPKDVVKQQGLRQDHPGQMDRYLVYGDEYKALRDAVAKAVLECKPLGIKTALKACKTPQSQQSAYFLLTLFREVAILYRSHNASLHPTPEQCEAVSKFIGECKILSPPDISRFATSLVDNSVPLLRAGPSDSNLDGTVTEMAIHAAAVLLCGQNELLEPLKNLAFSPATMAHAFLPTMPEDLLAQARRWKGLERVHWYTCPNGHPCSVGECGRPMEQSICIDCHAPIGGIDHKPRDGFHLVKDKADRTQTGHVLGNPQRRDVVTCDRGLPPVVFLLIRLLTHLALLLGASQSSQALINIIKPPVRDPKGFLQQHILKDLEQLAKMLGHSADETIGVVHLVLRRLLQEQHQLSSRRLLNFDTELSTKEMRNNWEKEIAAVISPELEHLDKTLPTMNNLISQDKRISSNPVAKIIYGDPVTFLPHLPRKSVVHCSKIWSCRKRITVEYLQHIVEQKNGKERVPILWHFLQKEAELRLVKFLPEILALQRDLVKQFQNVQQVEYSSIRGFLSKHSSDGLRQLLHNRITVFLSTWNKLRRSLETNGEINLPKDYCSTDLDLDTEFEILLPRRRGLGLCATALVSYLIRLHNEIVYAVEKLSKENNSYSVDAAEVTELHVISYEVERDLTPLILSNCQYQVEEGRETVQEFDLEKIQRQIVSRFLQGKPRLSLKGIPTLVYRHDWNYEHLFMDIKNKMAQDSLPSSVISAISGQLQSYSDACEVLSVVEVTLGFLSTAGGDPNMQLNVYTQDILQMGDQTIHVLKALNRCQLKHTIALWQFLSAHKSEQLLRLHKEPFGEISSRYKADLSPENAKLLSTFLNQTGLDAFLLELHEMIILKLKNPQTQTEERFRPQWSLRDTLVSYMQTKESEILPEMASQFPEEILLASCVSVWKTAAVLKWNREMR
binder,measurement,value
B1,binding result,binds
